Results as given in patent US11814435B2, “Therapeutic antibodies and their uses” (PFIZER INC., priority 2015, dated 2023).
Positions count from the first letter of the chain named.

B1: L3.PY/L1.AH/H2.LT: anti-BCMA antibody (antibody, V domains shown)
VH: EVQLLESGGGLVQPGGSLRLSCAASGFTFGSYAMTWVRQAPGKGLEWVSAISLTGGNTFYADSVKGRFTISRDNSKNTLYLQMNSLRAEDTAVYYCARVSPIASGMDYWGQGTLVTVSS
VL: EIVLTQSPGTLSLSPGERATLSCRASQSVSAHYLAWYQQKPGQAPRLLIYGASSRATGIPDRFSGSGSGTDFTLTISRLEPEDFAVYYCQHYPYPPSFTFGQGTKVEIK
B2: L3.PY/L1.FF/H2.QR: anti-BCMA antibody (antibody, V domains shown)
VH: B1 VH with L53G, T54S, S63Q, V64R
VL: B1 VL with A31S, H32F, Y33F
B3: L3.PY/L1.FF/H2.HA: anti-BCMA antibody (antibody, V domains shown)
VH: B1 VH with L53H, T54A
VL: B1 VL with A31S, H32F, Y33F
B4: L3.PY/L1.FF/H2.LT: anti-BCMA antibody (antibody, V domains shown)
VH: B1 VH
VL: B1 VL with A31S, H32F, Y33F
B5: L3.PY/L1.FF/H3.AE: anti-BCMA antibody (antibody, V domains shown)
VH: B1 VH with L53G, T54S, S104A, G105E
VL: B1 VL with A31S, H32F, Y33F
B6: L3.PY/L1.PH/H2.HA: anti-BCMA antibody (antibody, V domains shown)
VH: B1 VH with L53H, T54A
VL: B1 VL with A31P
B7: L3.PY/L1.FF/H2.YQ: anti-BCMA antibody (antibody, V domains shown)
VH: B1 VH with L53Y, T54Q
VL: B1 VL with A31S, H32F, Y33F
B8: L3.PY/L1.FF/H3.TAQ: anti-BCMA antibody (antibody, V domains shown)
VH: B1 VH with L53G, T54S, A97T, S104A, G105Q
VL: B1 VL with A31S, H32F, Y33F
B9: L3.PY/L1.PH/H2.QR: anti-BCMA antibody (antibody, V domains shown)
VH: B1 VH with L53G, T54S, S63Q, V64R
VL: B1 VL with A31P
B10: L3.PY/L1.AH/H3.AE: anti-BCMA antibody (antibody, V domains shown)
VH: B1 VH with L53G, T54S, S104A, G105E
VL: B1 VL
B11: L3.PY/L1.AH/H2.QL: anti-BCMA antibody (antibody, V domains shown)
VH: B1 VH with L53G, T54S, S63Q, V64L
VL: B1 VL
B12: L3.PY/L1.AH/H3.TAQ: anti-BCMA antibody (antibody, V domains shown)
VH: B1 VH with L53G, T54S, A97T, S104A, G105Q
VL: B1 VL
B13: L3.PY/L1.FF/H3.YA: anti-BCMA antibody (antibody, V domains shown)
VH: B1 VH with L53G, T54S, A103Y, S104A
VL: B1 VL with A31S, H32F, Y33F
B14: L3.PY/L1.AH/H2.HA: anti-BCMA antibody (antibody, V domains shown)
VH: B1 VH with L53H, T54A
VL: B1 VL
B15: L3.PY/L1.FF/H2.QL: anti-BCMA antibody (antibody, V domains shown)
VH: B1 VH with L53G, T54S, S63Q, V64L
VL: B1 VL with A31S, H32F, Y33F
B16: L3.PY/L1.FF/H2.DY: anti-BCMA antibody (antibody, V domains shown)
VH: B1 VH with S52D, L53Y, T54S
VL: B1 VL with A31S, H32F, Y33F
B17: L3.PY/L1.AH/H3.YA: anti-BCMA antibody (antibody, V domains shown)
VH: B1 VH with L53G, T54S, A103Y, S104A
VL: B1 VL

Key:
cyBCMA = assay: Kinetics and affinity of cyBCMA/human IgG interactions by SPR (Bio-Rad Proteon XPR36); format: binding, cynomolgus; settings: 37° C.
hBCMA (human BCMA) = biological target: T1, hBCMA (human BCMA) (Homo sapiens, UniProt Q02223); assay: Kinetics and affinity of hBCMA/human IgG interactions by SPR (Bio-Rad Proteon XPR36); format: binding; settings: huBCMA, 37° C.
T1 sequence (Q02223 1-184): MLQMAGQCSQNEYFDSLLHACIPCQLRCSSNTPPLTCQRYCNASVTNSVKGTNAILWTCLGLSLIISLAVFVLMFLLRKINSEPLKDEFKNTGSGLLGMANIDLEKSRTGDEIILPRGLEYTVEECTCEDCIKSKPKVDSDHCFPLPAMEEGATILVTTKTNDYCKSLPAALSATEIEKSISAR
Method: All experiments were performed on a Bio-Rad Proteon XPR36 surface Plasmon resonance biosensor (Bio-Rad, Hercules, Calif.). An array of anti-BCMA antibodies was prepared using an amine-coupling method on a Bio-Rad GLC Sensor Chip similar to that described in Abdiche, et al., Anal. Biochem. 411, 139-151 (2011). The analysis temperature for the immobilization was 25° C. and the running buffer was HBS-T+(10 mM HEPES, 150 mM NaCl, 0.05% Tween-20, pH 7.4). Channels were activated in the analyte (horizontal) direction by injecting a mixture of 1 mM ECD and 0.25 mM NHS for 3 minutes at a flow rate of 30 μL/min. IgGs were immobilized on the activated spots by injecting them in the ligand (vertical) direction at 20 μg/mL in 10 mM Acetate pH 4.5 buffer for 1.5 minutes at […]. The activated surfaces were blocked by injecting 1M ethanolamine, pH 8.5 in the analyte direction for 3 minutes at 30 μL/min.
The analysis temperature for the hBCMA binding analysis was 37° C. or 25° C. in a running buffer of HBS-T+, supplemented with 1 mg/mL BSA. A kinetic titration method was employed for the interaction analysis as described in Abdiche, et al. The hBCMA (human BCMA) analyte was injected in the analyte direction using a series of injections from low to high concentration. The concentrations used were 0.08 nM, 0.4 nM, 2 nM, 10 nM and 50 nM (a 5-membered series, with a 5-fold dilution factor and top concentration of 50 nM). The association time for a given analyte dilution was two minutes. Immediately after the 50 nM hBCMA injection, dissociation was monitored for 2 hours. Prior to the hBCMA analyte injections, buffer was injected 5 times using the same association and dissociation times at the hBCMA analyte cycles to prepare a buffer blank sensorgram for double-referencing purposes (double referencing as described in Myszka, J. Mol. Recognit. 12, 279-284 (1999).
The sensorgrams were double-referenced and fit to a 1:1 Langmuir with mass transport kinetic titration model in BIAevaluation Software version 4.1.1 (GE Lifesciences, Piscataway, N.J.). The sensorgrams and fits are shown in FIG. 1, and the kinetics and affinity parameters for various anti-BCMA antibodies of the present invention are shown in Tables 6A-6C.

Molecule | ka (1/Ms) cyBCMA @ 37° C. (cyBCMA) [M⁻¹ s⁻¹] | kd (1/s) cyBCMA @37° C. (cyBCMA) [s⁻¹] | ka (1/Ms) huBCMA @ 37° C. (hBCMA (human BCMA)) [M⁻¹ s⁻¹] | kd (1/s) huBCMA @37° C. (hBCMA (human BCMA)) [s⁻¹]
B1 | 2.19e+06 | 0.00296 | 3.16e+06 | 0.00123
B2 | 2.55e+06 | 0.00421 | 3.47e+06 | 0.00177
B3 | 2.33e+06 | 0.00417 | 3.49e+06 | 0.00219
B4 | 2.19e+06 | 0.00341 | 3.3e+06 | 0.00167
B5 | 2.85e+06 | 0.00501 | 3.82e+06 | 0.00263
B6 | 1.61e+06 | 0.00553 | 2.37e+06 | 0.00116
B7 | 2.19e+06 | 0.00326 | 3.32e+06 | 0.00152
B8 | 2.32e+06 | 0.00376 | 3.52e+06 | 0.00189
B9 | 2.42e+06 | 0.00436 | 3.69e+06 | 0.00236
B10 | 2.25e+06 | 0.00356 | 3.32e+06 | 0.00173
B11 | 2.62e+06 | 0.00955 | 3.04e+06 | 0.0016
B12 | 2.28e+06 | 0.00302 | 3.27e+06 | 0.00119
B13 | 2.46e+06 | 0.00416 | 3.5e+06 | 0.0018
B14 | 2.58e+06 | 0.00439 | 3.33e+06 | 0.00181
B15 | 2.36e+06 | 0.00449 | 3.48e+06 | 0.0014
B16 | 2.66e+06 | 0.005 | 4.14e+06 | 0.00271
B17 | 2.37e+06 | 0.00526 | 3e+06 | 0.0015
